From PMC9727770 (2023)

B1: Regn-10987 (antibody, V domains shown)
VH: QVQLVESGGGVVQPGRSLRLSCAASGFTFSNYAMYWVRQAPGKGLEWVAVISYDGSNKYYADSVKGRFTISRDNSKNTLYLQMNSLRTEDTAVYYCASGSDYGDYLLVYWGQGTLVTVSS
VL: QSALTQPASVSGSPGQSITISCTGTSSDVGGYNYVSWYQQHPGKAPKLMIYDVSKRPSGVSNRFSGSKSGNTASLTISGLQSEDEADYYCNSLTSISTWVFGGGTKLTVL
B2: Eli Lilly Ly-CoV016 (antibody, V domains shown)
VH: EVQLVESGGGLVQPGGSLRLSCAASGFTVSSNYMSWVRQAPGKGLEWVSVIYSGGSTFYADSVKGRFTISRDNSMNTLFLQMNSLRAEDTAVYYCARVLPMYGDYLDYWGQGTLVTVSS
VL: not shown
B3: Regn-10933 (antibody, V domains shown)
VH: QVQLVESGGGLVKPGGSLRLSCAASGFTFSDYYMSWIRQAPGKGLEWVSYITYSGSTIYYADSVKGRFTISRDNAKSSLYLQMNSLRAEDTAVYYCARDRGTTMVPFDYWGQGTLVTVSS
VL: DIQMTQSPSSLSASVGDRVTITCQASQDITNYLNWYQQKPGKAPKLLIYAASNLETGVPSRFSGSGSGTDFTFTISGLQPEDIATYYCQQYDNLPLTFGGGTKVEIK

molecular target: RBD of the SARS-CoV-2 L strain spike protein, soluble (SARS-CoV-2 (L strain), UniProt P0DTC2 319-541); test: BLI

Row | Binder | Kd [nM]
1 | B1 | 74.2
2 | B2 | 203
3 | B3 | 14.4
